B1: Lag3-Myc, full-length (FL), in HEK293FT cells [not stated] / human FLAG-APLP1, full length [human] (parent complex)
chain 1: GPGKELPVVWAQEGAPVHLPCSLKSPNLDPNFLRRGGVIWQHQPDSGQPTPIPALDLHQGMPSPRQPAPGRYTVLSVAPGGLRSGRQPLHPHVQLEERGLQRGDFSLWLRPALRTDAGEYHATVRLPNRALSCSLRLRVGQASMIASPSGVLKLSDWVLLNCSFSRPDRPVSVHWFQGQNRVPVYNSPRHFLAETFLLLPQVSPLDSGTWGCVLTYRDGFNVSITYNLKVLGLEPVAPLTVYAAEGSRVELPCHLPPGVGTPSLLIAKWTPPGGGPELPVAGKSGNFTLHLEAVGLAQAGTYTCSIHLQGQQLNATVTLAVITVTPKSFGLPGSRGKLLCEVTPASGKERFVWRPLNNLSRSCPGPVLEIQEARLLAERWQCQLYEGQRLLGATVYAAESSSGAHSARRISGDLKGGHLVLVLILGALSLFLLVAGAFGFHWWRKQLLLRRFSALEHGIQPFPAQRKIEELERELETEMGQEPEPEPEPQLEPEPRQL
chain 2: SLAGGSPGAAEAPGSAQVAGLCGRLTLHRDLRTGRWEPDPQRSRRCLRDPQRVLEYCRQMYPELQIARVEQATQAIPMERWCGGSRSGSCAHPHHQVVPFRCLPGEFVSEALLVPEGCRFLHQERMDQCESSTRRHQEAQEACSSQGLILHGSGMLLPCGSDRFRGVEYVCCPPPGTPDPSGTAVGDPSTRSWPPGSRVEGAEDEEEEESFPQPVDDYFVEPPQAEEEEETVPPPSSHTLAVVGKVTPTPRPTDGVDIYFGMPGEISEHEGFLRAKMDLEERRMRQINEVMREWAMADNQSKNLPKADRQALNEHFQSILQTLEEQVSGERQRLVETHATRVIALINDQRRAALEGFLAALQADPPQAERVLLALRRYLRAEQKEQRHTLRHYQHVAAVDPEKAQQMRFQVHTHLQVIEERVNQSLGLLDQNPHLAQELRPQIQELLHSEHLGPSELEAPAPGGSSEDKGGLQPPDSKDDTPMTLPKGSTEQDAASPEKEKMNPLEQYERKVNASVPRGFPFHSSEIQRDELAPAGTGVSREAVSGLLIMGAGGGSLIVLSMLLLRRKKPYGAISHGVVEVDPMLTLEEQQLRELQRHGYENPTYRFLEERP

One variant from PMC11143359 (2024) can be followed below.

The variants in this assay derive from B1. The assay is described as follows: co-IP (IP: FLAG, blot Myc-Lag3), band intensity quantified; read off a plot.
With chain 2 L25A, chain 2 T26A, chain 2 H28A, chain 2 D30A, chain 2 C46A, chain 2 L47A, chain 2 Q71A, chain 2 T73A, chain 2 I76A, the response was approximately 20 AU.
